According to paper PMC2958304:

Target: Fat (Ft), full-length (pAct-ft) (Drosophila) (UniProt P33450)
Assay: cell aggregation assay; S2 cells transfected with ft mixed with S2 cells transfected with ds (one set cotransfected with pMK33B fj forms, with or without CuSO4 for 16 hr); rotated 100 rpm 2 hr, immunolabelled; percent of ft-expressing cells binding to ds-expressing cells counted

Chain of UniProt P33450 (P33450 36-5147): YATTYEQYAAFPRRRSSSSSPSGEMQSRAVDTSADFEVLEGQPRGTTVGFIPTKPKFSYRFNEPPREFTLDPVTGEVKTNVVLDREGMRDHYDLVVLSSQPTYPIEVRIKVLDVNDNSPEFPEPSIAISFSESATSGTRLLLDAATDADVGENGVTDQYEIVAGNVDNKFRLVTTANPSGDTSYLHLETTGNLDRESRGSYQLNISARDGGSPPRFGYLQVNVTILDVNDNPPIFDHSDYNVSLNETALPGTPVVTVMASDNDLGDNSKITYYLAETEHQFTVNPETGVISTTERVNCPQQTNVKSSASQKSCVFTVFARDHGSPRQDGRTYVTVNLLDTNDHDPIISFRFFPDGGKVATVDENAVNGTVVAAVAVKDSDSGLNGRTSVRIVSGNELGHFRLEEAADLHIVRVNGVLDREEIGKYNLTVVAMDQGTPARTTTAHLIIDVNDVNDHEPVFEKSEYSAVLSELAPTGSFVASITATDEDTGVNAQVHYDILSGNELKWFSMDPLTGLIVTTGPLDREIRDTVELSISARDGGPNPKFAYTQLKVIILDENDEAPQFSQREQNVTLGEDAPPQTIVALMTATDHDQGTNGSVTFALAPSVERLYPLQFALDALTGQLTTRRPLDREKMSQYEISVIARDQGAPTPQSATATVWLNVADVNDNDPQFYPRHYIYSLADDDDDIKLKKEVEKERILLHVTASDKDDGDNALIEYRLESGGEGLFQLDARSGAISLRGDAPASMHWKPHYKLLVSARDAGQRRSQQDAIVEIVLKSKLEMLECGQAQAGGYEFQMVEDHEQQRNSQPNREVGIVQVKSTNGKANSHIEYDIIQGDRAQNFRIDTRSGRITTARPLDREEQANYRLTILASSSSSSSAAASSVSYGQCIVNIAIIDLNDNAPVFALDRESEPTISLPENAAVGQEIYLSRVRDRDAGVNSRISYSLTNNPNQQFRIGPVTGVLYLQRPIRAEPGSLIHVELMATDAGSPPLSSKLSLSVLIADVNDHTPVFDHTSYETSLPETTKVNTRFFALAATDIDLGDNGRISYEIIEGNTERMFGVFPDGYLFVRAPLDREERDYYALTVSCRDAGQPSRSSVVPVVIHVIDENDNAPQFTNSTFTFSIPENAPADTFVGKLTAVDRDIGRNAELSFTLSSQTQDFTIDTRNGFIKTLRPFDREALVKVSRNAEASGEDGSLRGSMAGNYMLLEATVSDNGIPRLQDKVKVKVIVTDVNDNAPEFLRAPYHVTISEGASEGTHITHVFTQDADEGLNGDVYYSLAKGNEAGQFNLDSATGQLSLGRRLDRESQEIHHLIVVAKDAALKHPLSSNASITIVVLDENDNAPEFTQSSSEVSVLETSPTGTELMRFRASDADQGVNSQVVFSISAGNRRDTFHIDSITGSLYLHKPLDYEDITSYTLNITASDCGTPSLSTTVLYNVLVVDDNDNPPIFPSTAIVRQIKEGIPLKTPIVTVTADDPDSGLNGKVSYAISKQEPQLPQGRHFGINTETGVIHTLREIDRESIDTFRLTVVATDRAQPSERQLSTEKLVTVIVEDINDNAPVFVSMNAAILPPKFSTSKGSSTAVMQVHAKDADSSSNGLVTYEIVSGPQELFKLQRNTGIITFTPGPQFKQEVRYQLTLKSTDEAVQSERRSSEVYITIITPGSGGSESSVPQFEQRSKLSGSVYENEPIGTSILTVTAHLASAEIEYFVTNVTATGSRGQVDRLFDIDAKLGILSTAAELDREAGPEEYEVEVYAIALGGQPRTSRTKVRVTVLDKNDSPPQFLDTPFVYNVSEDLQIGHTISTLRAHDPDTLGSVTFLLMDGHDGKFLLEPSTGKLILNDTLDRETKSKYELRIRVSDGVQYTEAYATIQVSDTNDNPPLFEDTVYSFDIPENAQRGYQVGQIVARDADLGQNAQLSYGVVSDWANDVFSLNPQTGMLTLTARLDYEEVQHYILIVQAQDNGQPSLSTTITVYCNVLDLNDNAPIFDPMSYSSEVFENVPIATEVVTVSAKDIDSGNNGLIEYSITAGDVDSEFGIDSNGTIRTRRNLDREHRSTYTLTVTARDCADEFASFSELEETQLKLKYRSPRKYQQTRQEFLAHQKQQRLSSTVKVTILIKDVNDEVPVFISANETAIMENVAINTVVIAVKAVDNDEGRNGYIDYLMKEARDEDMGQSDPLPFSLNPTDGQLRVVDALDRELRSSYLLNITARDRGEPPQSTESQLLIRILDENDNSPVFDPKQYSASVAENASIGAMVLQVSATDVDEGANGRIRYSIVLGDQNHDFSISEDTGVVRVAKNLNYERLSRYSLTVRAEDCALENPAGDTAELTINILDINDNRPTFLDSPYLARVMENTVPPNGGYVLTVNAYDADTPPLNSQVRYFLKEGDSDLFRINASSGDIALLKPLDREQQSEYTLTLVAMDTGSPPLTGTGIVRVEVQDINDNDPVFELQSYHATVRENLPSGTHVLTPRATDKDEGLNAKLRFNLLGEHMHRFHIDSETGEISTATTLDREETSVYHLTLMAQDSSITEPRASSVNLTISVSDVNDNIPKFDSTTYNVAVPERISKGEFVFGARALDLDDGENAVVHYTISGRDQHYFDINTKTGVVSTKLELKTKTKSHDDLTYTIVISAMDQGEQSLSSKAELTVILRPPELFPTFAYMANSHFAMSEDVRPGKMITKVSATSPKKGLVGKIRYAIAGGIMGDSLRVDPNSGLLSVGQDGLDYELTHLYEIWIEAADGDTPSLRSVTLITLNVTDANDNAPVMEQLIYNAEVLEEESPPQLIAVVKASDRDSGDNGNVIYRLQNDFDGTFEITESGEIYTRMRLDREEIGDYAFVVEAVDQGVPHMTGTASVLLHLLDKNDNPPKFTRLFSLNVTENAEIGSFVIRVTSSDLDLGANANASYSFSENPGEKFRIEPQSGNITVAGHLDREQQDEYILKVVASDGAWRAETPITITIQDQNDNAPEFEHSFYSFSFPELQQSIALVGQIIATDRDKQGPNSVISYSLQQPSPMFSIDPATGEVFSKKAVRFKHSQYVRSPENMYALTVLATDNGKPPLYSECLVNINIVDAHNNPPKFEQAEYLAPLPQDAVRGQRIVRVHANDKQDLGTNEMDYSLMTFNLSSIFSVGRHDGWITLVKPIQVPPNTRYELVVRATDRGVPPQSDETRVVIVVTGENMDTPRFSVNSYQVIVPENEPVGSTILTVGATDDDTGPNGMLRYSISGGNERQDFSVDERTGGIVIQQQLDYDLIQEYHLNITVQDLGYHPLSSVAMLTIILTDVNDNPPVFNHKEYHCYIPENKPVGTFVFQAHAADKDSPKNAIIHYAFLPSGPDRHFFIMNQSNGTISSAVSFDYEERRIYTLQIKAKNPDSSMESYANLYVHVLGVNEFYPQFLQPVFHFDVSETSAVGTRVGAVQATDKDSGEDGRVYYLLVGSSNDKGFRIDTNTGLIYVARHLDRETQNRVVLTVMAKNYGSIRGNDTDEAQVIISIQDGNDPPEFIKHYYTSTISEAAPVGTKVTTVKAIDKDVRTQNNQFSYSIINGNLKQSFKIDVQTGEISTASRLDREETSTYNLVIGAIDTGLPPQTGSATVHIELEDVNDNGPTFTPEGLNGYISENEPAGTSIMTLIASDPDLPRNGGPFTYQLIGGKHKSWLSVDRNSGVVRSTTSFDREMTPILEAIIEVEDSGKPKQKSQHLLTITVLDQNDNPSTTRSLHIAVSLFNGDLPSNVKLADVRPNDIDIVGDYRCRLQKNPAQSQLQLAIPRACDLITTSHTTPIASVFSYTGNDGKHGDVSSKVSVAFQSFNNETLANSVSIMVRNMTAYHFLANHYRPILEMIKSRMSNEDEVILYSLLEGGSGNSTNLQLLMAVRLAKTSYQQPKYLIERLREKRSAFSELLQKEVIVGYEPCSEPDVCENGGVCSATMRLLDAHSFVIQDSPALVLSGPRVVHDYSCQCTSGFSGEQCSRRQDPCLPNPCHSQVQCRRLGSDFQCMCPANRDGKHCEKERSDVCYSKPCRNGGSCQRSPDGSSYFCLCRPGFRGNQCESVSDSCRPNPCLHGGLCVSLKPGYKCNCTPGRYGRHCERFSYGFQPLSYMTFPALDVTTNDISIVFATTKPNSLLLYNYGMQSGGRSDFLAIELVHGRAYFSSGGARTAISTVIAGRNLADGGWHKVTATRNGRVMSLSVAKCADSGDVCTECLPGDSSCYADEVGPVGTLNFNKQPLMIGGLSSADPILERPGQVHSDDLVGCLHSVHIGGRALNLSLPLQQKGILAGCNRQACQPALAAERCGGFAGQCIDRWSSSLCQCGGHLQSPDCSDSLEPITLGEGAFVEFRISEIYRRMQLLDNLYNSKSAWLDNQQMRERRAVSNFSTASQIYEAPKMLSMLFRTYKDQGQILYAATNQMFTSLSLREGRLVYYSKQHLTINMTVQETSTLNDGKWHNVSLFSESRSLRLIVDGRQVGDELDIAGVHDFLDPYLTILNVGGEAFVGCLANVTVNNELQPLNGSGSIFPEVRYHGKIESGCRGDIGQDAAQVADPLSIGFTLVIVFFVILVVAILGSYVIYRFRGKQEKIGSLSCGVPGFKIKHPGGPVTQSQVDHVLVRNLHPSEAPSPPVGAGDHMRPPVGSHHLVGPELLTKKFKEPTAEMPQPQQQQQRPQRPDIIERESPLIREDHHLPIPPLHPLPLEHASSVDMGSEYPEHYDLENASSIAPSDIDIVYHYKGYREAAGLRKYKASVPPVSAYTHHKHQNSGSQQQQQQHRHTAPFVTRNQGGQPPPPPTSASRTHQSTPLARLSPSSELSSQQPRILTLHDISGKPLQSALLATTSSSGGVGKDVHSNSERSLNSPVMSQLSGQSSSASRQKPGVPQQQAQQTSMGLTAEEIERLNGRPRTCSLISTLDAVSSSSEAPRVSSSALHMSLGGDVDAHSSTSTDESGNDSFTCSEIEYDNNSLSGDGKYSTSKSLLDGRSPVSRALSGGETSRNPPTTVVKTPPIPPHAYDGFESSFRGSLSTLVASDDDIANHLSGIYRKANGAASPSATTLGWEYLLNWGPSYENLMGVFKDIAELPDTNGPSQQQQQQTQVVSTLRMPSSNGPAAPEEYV

Dachsous (Ds), untagged form, coexpressed with Fj or GNT-Fj (phosphorylated by Fj) (receptor)
reduction of binding against the same cells without Fj induction: 40%
